Data on one molecule can be found in patent US20230144876A1 (UNIVERSITY OF KITAKYUSHU, published 2023).

This test addresses T1, MHC-1 (MHC class I molecules) on murine dendritic cell line DC2.4 cells (mouse, UniProt P01887 21-119; P01901 22-369).
T1 construct: whole, on cells; also called H-2Kb
T1 sequence (MHC heavy, looked up): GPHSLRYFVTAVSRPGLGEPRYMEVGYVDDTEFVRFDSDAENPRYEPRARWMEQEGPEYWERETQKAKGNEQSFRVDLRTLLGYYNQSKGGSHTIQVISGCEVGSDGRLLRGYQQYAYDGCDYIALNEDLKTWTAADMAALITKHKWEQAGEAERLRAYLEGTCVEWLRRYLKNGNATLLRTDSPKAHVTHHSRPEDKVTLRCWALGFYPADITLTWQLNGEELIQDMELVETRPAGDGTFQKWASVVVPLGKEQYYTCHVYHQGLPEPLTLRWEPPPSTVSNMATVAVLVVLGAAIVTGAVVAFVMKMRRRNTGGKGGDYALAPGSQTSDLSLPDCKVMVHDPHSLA
T1 sequence (b2m, looked up): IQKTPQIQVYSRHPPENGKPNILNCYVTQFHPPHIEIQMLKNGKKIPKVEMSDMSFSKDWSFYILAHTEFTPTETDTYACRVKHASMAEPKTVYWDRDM
In words: competitive inhibition of OVA peptide 1 binding to MHC-1 on DC2.4 cells, flow cytometry. The method, then:
Murine dendritic cell line, DC2.4 cells, were detached from a dish, and suspended in 1.5 mL tubes at a concentration of 1.5×10⁵ cells per […] of PBS.

B1: C-TRP2-9 (cysteine added to the N-terminus of residues 180 to 188 of mTRP2) (peptide)
peptide: CSVYDFFVWL
notes: 10-mer; N-terminal Cys plus mTRP2 180-188; Free peptide in the assay
For B1, the binding result is reported as “no binding (tested: 2.5 µg/mL)”.
